One assay has as its target T1, soluble EpoR (EposR) (human, UniProt P19235 25-250, limits assumed).
T1 construct: Test antigen in BIAcore and in yeast display assays; also called soluble recombinant human EpoR
T1 sequence (looked up): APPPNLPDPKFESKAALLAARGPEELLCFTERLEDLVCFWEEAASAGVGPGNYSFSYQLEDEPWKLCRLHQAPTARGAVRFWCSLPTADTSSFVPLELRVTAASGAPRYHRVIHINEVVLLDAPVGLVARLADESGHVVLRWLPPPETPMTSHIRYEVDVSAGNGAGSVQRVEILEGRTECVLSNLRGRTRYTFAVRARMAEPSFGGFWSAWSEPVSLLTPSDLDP
Put plainly: yeast surface display, flow cytometry: equilibrium titration of scFv-displaying yeast with soluble EpoR at 37 C, bound EposR detected with MAB307 + anti-mouse RPE. (A flow cytometer gives signals particle by particle.)

Assay [1] addresses human erythropoietin receptor on human erythroleukemic cells (UT-7/Epo, F36E) (human), P19235. Put plainly: cell-based or functional assay.

human erythropoietin receptor on human erythroleukemic cells (UT-7/Epo, F36E) (human), P19235, sequence (P19235 25-508, stated change not applied): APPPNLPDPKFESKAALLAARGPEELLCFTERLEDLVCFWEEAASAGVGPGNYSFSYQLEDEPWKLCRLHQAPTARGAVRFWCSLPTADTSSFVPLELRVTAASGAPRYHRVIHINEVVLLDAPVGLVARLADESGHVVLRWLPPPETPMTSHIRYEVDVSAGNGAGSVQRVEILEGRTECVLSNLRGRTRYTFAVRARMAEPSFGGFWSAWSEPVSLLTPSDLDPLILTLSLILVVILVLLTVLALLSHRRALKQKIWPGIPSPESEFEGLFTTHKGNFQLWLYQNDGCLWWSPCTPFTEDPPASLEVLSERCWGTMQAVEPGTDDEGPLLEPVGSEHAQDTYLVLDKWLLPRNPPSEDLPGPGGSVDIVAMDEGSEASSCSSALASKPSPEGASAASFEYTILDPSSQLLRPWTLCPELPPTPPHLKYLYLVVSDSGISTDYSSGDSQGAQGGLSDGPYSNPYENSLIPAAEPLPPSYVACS
Protocol for soluble EpoR (EposR): Functional cell surface protein expression was compared by incubating the transformed yeast with increasing concentrations of soluble EpoR (EposR) at 37° C.

B1: Ab12 41/WT (scFv)
scFv displayed on yeast: GENKVEYAPALMALSQVQLQESGPGLVKPSETLSLTCTVSGASISSYYWSWIRQPPGKGLEWIGYIYYSGSTNYNPSLKSRVTISVDTSKNQFSLKLRSVTAADTAVYYCARERLGIGDYWGQGTLVTVSSGGGGSGGGGSGGGGSDIQLTQSPSSLSASVGDRVTITCRASQGIRNDLGWYQQKPGKAPKRLIYAASSLQSGVPSRFSGSGSGTEFTLTISSLQPEDFATYYCLQHNTYPPTFGQGTKVEIK
notes: also called Ab12 scFv construct with linker 41 in the tether position and the Gly/Ser linker (WT) in the scFv linker position
Consider B1, for which, in the assay with soluble EpoR (EposR), the “EC50 (read off the curve)” value is approximately 6 nM.

B2: Ab12.118 (antibody, IgG2, V domains shown)
VH: QVQLQESGPGLVKPSETLSLTCTVSGASISSYYWSWIRQPPGKGLEWIGYIGYSGSTNYNPSLKSRVTISVDTSKNQFSLKLRSVTAADTAVYYCARERLGIGDYWGQGTLVTVSS
VL: DIQLTQSPSSLSASVGDRVTITCRASQGIRNDLGWYQQKPGKAPKRLIYAASSLQSGVPSRFSGSGSGTEFTLTISSLQPEDFATYYCLQHNTYPPTFGQGTKVEIK
In assay [1], B2 showed an EC50, cell proliferation assay of 1.13 nM and an Emax, cell proliferation assay of 2.65 absorbance.

B3: Ab12.6 (antibody, V domains shown)
VH: QVQLQESGPGLVKPSETLSLTCTVSGASISSYYWSWIRQPPGKGLEWIGYIGGEGSTNYNPSLKSRVTISVDTSKNQFSLKLRSVTAADTAVYYCARERLGIGDYWGQGTLVTVSS
VL: DIQLTQSPSSLSASVGDRVTITCRASQGIRNDLGWYQQKPGKAPKRLIYAASSLQSGVPSRFSGSGSGTEFTLTISSLQPEDFATYYCLQHNTYPPTFGQGTKVEIK
In assay [1], B3 had an EC50, cell proliferation assay of 0.58 nM and an Emax, cell proliferation assay of 2.81 absorbance.

B4: Ab12 (antibody, human IgG2, V domains shown)
VH: QVQLQESGPGLVKPSETLSLTCTVSGASISSYYWSWIRQPPGKGLEWIGYIYYSGSTNYNPSLKSRVTISVDTSKNQFSLKLRSVTAADTAVYYCARERLGIGDYWGQGTLVTVSS
VL: DIQLTQSPSSLSASVGDRVTITCRASQGIRNDLGWYQQKPGKAPKRLIYAASSLQSGVPSRFSGSGSGTEFTLTISSLQPEDFATYYCLQHNTYPPTFGQGTKVEIK
With B4, in assay [1], the EC50, cell proliferation assay came to 1.29 nM and the Emax, cell proliferation assay turned out to be 1.98 absorbance.

B5: Ab12.121 (antibody, IgG2, V domains shown)
VH: QVQLQESGPGLVKPSETLSLTCTVSGASISSYYWSWIRQPPGKGLEWIGYIGGSGSTNYNPSLKSRVTISVDTSKNQFSLKLRSVTAADTAVYYCARERLGIGDYWGQGTLVTVSS
VL: DIQLTQSPSSLSASVGDRVTITCRASQGIRNDLGWYQQKPGKAPKRLIYAASSLQSGVPSRFSGSGSGTEFTLTISSLQPEDFATYYCLQHNTYPPTFGQGTKVEIK
In the case of B5, in assay [1], the EC50, cell proliferation assay worked out at 0.465 nM and the Emax, cell proliferation assay came to 2.3 absorbance.

B6: Ab12.56 (antibody, IgG2, V domains shown)
VH: QVQLQESGPGLVKPSETLSLTCTVSGASISSYYWSWIRQPPGKGLEWIGYIAGTGSTNYNPSLKSRVTISVDTSKNQFSLKLRSVTAADTAVYYCARERLGIGDYWGQGTLVTVSS
VL: DIQLTQSPSSLSASVGDRVTITCRASQGIRNDLGWYQQKPGKAPKRLIYAASSLQSGVPSRFSGSGSGTEFTLTISSLQPEDFATYYCLQHNTYPPTFGQGTKVEIK
In assay [1], B6 registered an EC50, cell proliferation assay of 1.17 nM and an Emax, cell proliferation assay of 2.51 absorbance.

B7: Ab12.120 (antibody, IgG2, V domains shown)
VH: QVQLQESGPGLVKPSETLSLTCTVSGASISSYYWSWIRQPPGKGLEWIGYIYYEGSTNYNPSLKSRVTISVDTSKNQFSLKLRSVTAADTAVYYCARERLGIGDYWGQGTLVTVSS
VL: DIQLTQSPSSLSASVGDRVTITCRASQGIRNDLGWYQQKPGKAPKRLIYAASSLQSGVPSRFSGSGSGTEFTLTISSLQPEDFATYYCLQHNTYPPTFGQGTKVEIK
Take B7: in assay [1], the EC50, cell proliferation assay came out at 0.34 nM and the Emax, cell proliferation assay was found to be 2 absorbance.

B8: Ab12.123 (antibody, IgG2, V domains shown)
VH: QVQLQESGPGLVKPSETLSLTCTVSGASISSYYWSWIRQPPGKGLEWIGYIGYEGSTNYNPSLKSRVTISVDTSKNQFSLKLRSVTAADTAVYYCARERLGIGDYWGQGTLVTVSS
VL: DIQLTQSPSSLSASVGDRVTITCRASQGIRNDLGWYQQKPGKAPKRLIYAASSLQSGVPSRFSGSGSGTEFTLTISSLQPEDFATYYCLQHNTYPPTFGQGTKVEIK
In assay [1], B8 showed an EC50, cell proliferation assay of 0.91 nM and an Emax, cell proliferation assay of 2.7 absorbance.

B9: Ab12.119 (antibody, IgG2, V domains shown)
VH: QVQLQESGPGLVKPSETLSLTCTVSGASISSYYWSWIRQPPGKGLEWIGYIYGSGSTNYNPSLKSRVTISVDTSKNQFSLKLRSVTAADTAVYYCARERLGIGDYWGQGTLVTVSS
VL: DIQLTQSPSSLSASVGDRVTITCRASQGIRNDLGWYQQKPGKAPKRLIYAASSLQSGVPSRFSGSGSGTEFTLTISSLQPEDFATYYCLQHNTYPPTFGQGTKVEIK
B9: in assay [1], the EC50, cell proliferation assay came out at 1.34 nM and the Emax, cell proliferation assay turned out to be 2.53 absorbance.

B10: Ab12.122 (antibody, IgG2, V domains shown)
VH: QVQLQESGPGLVKPSETLSLTCTVSGASISSYYWSWIRQPPGKGLEWIGYIYGEGSTNYNPSLKSRVTISVDTSKNQFSLKLRSVTAADTAVYYCARERLGIGDYWGQGTLVTVSS
VL: DIQLTQSPSSLSASVGDRVTITCRASQGIRNDLGWYQQKPGKAPKRLIYAASSLQSGVPSRFSGSGSGTEFTLTISSLQPEDFATYYCLQHNTYPPTFGQGTKVEIK
In assay [1], B10 returned an EC50, cell proliferation assay of 0.42 nM and an Emax, cell proliferation assay of 2.4 absorbance.

As a reminder, the EC50 (read off the curve) is the concentration that produces a half-maximal response.

(Values after patent US20080038265A1 (published 2008).)
